Laboratory results: publication PMC7904663 (Nature chemical biology, 2021)

Legend:
NicA2 = target: T1, NicA2 (Pseudomonas putida, UniProt F8G0P2); assay: biochemical
T1 sequence (F8G0P2 1-482): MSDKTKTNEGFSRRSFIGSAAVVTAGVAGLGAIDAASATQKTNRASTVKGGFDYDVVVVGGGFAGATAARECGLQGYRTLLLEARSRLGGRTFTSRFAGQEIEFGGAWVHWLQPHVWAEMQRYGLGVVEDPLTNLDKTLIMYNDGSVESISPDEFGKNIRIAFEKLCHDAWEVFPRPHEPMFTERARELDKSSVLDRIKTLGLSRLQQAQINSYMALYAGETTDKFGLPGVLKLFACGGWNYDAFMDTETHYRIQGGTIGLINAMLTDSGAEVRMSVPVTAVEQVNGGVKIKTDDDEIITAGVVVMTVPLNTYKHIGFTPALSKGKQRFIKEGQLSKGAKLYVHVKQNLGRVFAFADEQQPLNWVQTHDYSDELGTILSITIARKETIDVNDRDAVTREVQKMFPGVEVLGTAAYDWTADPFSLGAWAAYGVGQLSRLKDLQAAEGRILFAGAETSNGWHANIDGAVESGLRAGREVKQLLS

[1] = target: Nicotine oxidoreductase (NicA2) (Pseudomonas putida S16) (UniProt F8G0P2); assay: stopped-flow absorbance spectrophotometry

Molecule | Kd (NicA2) | bimolecular rate constant (kon), first phase, N-methylmyosmine-bound NicA2 [1] | bimolecular rate constant (kon), second phase, N-methylmyosmine-bound NicA2 [1] | kon, first phase (CycNox with NicA2-Flred) [1]
c1cncc(C2=NCCC2)c1 [myosmine] | 268 ± 3 µM |  |  | 
CycN (cytochrome c of Pseudomonas putida S16) (natural protein) |  | 140000 M⁻¹ s⁻¹ | 77000 M⁻¹ s⁻¹ | 1e+06 M⁻¹ s⁻¹
